Data from the supplement of paper PMC9112550, “Optimization of the antimicrobial peptide Bac7 by deep mutational scanning” (BMC Biology, 2022).

test system: Escherichia coli TOP10; assay: shrunken log2 fold change of peptide-encoding DNA abundance (4.5 h post-induction vs induction); higher = less antimicrobial activity (less host growth inhibition); conditions: time post-induction: 4.5 h; library: site-saturation at positions 5, 18, 19, 20
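Also: peptides expressed intracellularly from a pBAD plasmid library in pooled LB shake-flask culture, induced with 0.3% L-arabinose, DNA abundance read by NGS, three biological replicates, DESeq2 with apeglm shrinkage.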

Row | Sequence | shrunken log2 fold change
1 | RRIRLRPPRLPRPRPRPLENPRP | 0.0938
2 | RRIRFRPPRLPRPRPRPHESPRP | -0.0515
3 | RRIRERPPRLPRPRPRPAQCPRP | -0.0401
4 | RRIRHRPPRLPRPRPRPMHKPRP | 0.227
5 | RRIRWRPPRLPRPRPRPASYPRP | 0.151
6 | RRIRGRPPRLPRPRPRPNSSPRP | -0.00499
7 | RRIRNRPPRLPRPRPRPPYCPRP | 0.0775
8 | RRIRQRPPRLPRPRPRPIRWPRP | -0.0554
9 | RRIRTRPPRLPRPRPRPRIKPRP | -0.208
10 | RRIRNRPPRLPRPRPRPNMWPRP | -0.274
11 | RRIRKRPPRLPRPRPRPEQIPRP | 0.0375
12 | RRIRWRPPRLPRPRPRPFWEPRP | 0.121
13 | RRIRCRPPRLPRPRPRPETTPRP | 0.394
14 | RRIRIRPPRLPRPRPRPFHFPRP | -0.27
15 | RRIRWRPPRLPRPRPRPFTCPRP | 0.000407
16 | RRIRFRPPRLPRPRPRPMHRPRP | -0.0791
17 | RRIRLRPPRLPRPRPRPCVVPRP | -0.457
18 | RRIRVRPPRLPRPRPRPANYPRP | -0.241
19 | RRIRVRPPRLPRPRPRPDGRPRP | 0.149
20 | RRIRDRPPRLPRPRPRPPGTPRP | 0.435
21 | RRIRNRPPRLPRPRPRPEERPRP | -0.116
22 | RRIRKRPPRLPRPRPRPSHCPRP | -0.578
23 | RRIRPRPPRLPRPRPRPNNMPRP | -0.412
24 | RRIRQRPPRLPRPRPRPQVLPRP | 0.00177
25 | RRIRVRPPRLPRPRPRPKAQPRP | 0.107

Row | Sequence | shrunken log2 fold change
26 | RRIRLRPPRLPRPRPRPHCEPRP | -0.00711
27 | RRIRFRPPRLPRPRPRPWALPRP | 0.00634
28 | RRIRNRPPRLPRPRPRPMKMPRP | 0.064
29 | RRIRSRPPRLPRPRPRPYGIPRP | 0.104
30 | RRIRSRPPRLPRPRPRPGMDPRP | 0.0734
31 | RRIRERPPRLPRPRPRPKQSPRP | -0.0888
32 | RRIRARPPRLPRPRPRPDQAPRP | 0.026
33 | RRIRGRPPRLPRPRPRPHYLPRP | -0.295
34 | RRIRHRPPRLPRPRPRPYWPPRP | -0.306
35 | RRIRERPPRLPRPRPRPGMSPRP | 0.0438
36 | RRIRCRPPRLPRPRPRPVQIPRP | -0.0351
37 | RRIRHRPPRLPRPRPRPTRWPRP | 0.137
38 | RRIRDRPPRLPRPRPRPNSDPRP | -0.272
39 | RRIRVRPPRLPRPRPRPENEPRP | -0.0631
40 | RRIRWRPPRLPRPRPRPRPGPRP | 0.772
41 | RRIRLRPPRLPRPRPRPKSDPRP | 0.00855
42 | RRIRGRPPRLPRPRPRPGGGPRP | 1.33
43 | RRIRHRPPRLPRPRPRPPPIPRP | 0.361
44 | RRIRDRPPRLPRPRPRPVSDPRP | -0.145
45 | RRIRFRPPRLPRPRPRPIVQPRP | 0.00873
46 | RRIRYRPPRLPRPRPRPREVPRP | 0.00495
47 | RRIRSRPPRLPRPRPRPTPIPRP | 0.0944
48 | RRIRDRPPRLPRPRPRPVTMPRP | -0.228
49 | RRIRFRPPRLPRPRPRPVDIPRP | -0.338
50 | RRIRTRPPRLPRPRPRPLCPPRP | -0.165

Row | Sequence | shrunken log2 fold change
51 | RRIRRRPPRLPRPRPRPSCCPRP | -0.0867
52 | RRIRSRPPRLPRPRPRPVHCPRP | -0.258
53 | RRIRARPPRLPRPRPRPCYSPRP | -0.525
54 | RRIRKRPPRLPRPRPRPARYPRP | 0.513
55 | RRIRIRPPRLPRPRPRPSPPPRP | -0.214
56 | RRIRERPPRLPRPRPRPQRDPRP | 0.0296
57 | RRIRCRPPRLPRPRPRPRVDPRP | 0.113
58 | RRIRKRPPRLPRPRPRPVCVPRP | 0.573
59 | RRIRKRPPRLPRPRPRPIFCPRP | 0.387
60 | RRIRHRPPRLPRPRPRPNLKPRP | -0.465
61 | RRIRCRPPRLPRPRPRPIDLPRP | -0.271
62 | RRIRYRPPRLPRPRPRPYLVPRP | -0.536
63 | RRIRVRPPRLPRPRPRPRCYPRP | -0.31
64 | RRIRNRPPRLPRPRPRPCESPRP | -0.00141
65 | RRIRTRPPRLPRPRPRPDHMPRP | -0.109
66 | RRIRLRPPRLPRPRPRPTMTPRP | -0.256
67 | RRIRLRPPRLPRPRPRPMFLPRP | -0.0362
68 | RRIRNRPPRLPRPRPRPLHMPRP | -0.372
69 | RRIRWRPPRLPRPRPRPGHIPRP | -0.0732
70 | RRIRFRPPRLPRPRPRPKNAPRP | -0.0814
71 | RRIRMRPPRLPRPRPRPDYSPRP | -0.0167
72 | RRIRRRPPRLPRPRPRPYHKPRP | -0.535
73 | RRIRNRPPRLPRPRPRPDAYPRP | 0.068
74 | RRIRERPPRLPRPRPRPFRGPRP | -0.11
75 | RRIRERPPRLPRPRPRPKVPPRP | -0.015
